Experimental findings from US20200071711, “MODULAR CONSTRUCTION OF SYNTHETIC GENE CIRCUITS IN MAMMALIAN CELLS USING MATHEMATICAL MODELING OF CLOSED LOOP TRANSCRIPTIONAL REPRESSORS” (Tsinghua University, published 2020) are described below.

This data set addresses T1, TALER14 (synthetic, UniProt Q56830 SEQ:262-1310).
T1 chain: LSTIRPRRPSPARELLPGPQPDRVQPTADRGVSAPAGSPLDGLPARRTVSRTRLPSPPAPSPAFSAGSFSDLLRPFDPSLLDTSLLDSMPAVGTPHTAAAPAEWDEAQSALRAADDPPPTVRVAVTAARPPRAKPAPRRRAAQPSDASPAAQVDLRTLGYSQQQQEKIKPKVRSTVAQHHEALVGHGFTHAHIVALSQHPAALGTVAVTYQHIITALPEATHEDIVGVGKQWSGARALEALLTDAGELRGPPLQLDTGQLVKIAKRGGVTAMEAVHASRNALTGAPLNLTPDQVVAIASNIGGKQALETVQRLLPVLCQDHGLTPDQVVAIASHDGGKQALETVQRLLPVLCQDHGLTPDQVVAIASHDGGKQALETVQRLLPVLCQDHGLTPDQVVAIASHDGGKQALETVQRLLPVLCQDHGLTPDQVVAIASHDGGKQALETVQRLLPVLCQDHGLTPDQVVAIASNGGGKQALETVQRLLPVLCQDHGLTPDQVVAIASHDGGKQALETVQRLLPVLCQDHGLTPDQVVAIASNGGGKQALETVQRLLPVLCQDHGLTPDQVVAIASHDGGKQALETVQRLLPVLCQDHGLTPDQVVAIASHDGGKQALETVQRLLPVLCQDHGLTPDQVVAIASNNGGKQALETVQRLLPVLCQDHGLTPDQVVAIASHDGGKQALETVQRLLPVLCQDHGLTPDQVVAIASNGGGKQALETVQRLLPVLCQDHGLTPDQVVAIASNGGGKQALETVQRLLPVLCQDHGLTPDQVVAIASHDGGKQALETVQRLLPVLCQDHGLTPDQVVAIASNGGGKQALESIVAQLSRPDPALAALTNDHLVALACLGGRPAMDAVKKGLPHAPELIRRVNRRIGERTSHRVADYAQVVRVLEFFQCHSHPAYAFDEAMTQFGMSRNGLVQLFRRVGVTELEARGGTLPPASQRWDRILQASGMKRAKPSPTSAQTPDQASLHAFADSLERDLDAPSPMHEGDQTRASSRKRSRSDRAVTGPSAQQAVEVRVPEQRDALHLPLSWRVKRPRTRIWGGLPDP
Description: cell_activity; HEK293, two sites flanking CMVmini. Conditions: tags: EYFP-2A upstream, SV40 NLS.

B1: T14 site (dsDNA)
DNA 1: TACCCCTCTCCGCTTCT
DNA 2: AGAAGCGGAGAGGGGTA
Regarding B1, the binding signal was determined as 1440 fold repression.
